In article PMC6993860 (Biochemical Journal, 2020):
Read-outs that look alike come from different tables or passages of the source.

B1: HtrA3 S305A (enzyme)
chain: LHQLSSPRYKFNFIADVVEKIAPAVVHIELFLRHPLFGRNVPLSSGSGFIMSEAGLIITNAHVVSSNSAAPGRQQLKVQLQNGDSYEATIKDIDKKSDIATIKIHPKKKLPVLLLGHSADLRPGEFVVAIGSPFALQNTVTTGIVSTAQREGRELGLRDSDMDYIQTDAIINYGNAGGPLVNLDGEVIGINTLKVTAGISFAIPSDRITRFLTEFQDKQIKDWKKRFIGIRMRTITPSLVDELKASNPDFPEVSSGIYVQEVAPNSPSQRGGIQDGDIIVKVNGRPLVDSSELQEAVLTESPLLLEVRRGNDDLLFSIAPEVVM
B2: HtrA3 F142A (enzyme)
chain: LHQLSSPRYKFNAIADVVEKIAPAVVHIELFLRHPLFGRNVPLSSGSGFIMSEAGLIITNAHVVSSNSAAPGRQQLKVQLQNGDSYEATIKDIDKKSDIATIKIHPKKKLPVLLLGHSADLRPGEFVVAIGSPFALQNTVTTGIVSTAQREGRELGLRDSDMDYIQTDAIINYGNSGGPLVNLDGEVIGINTLKVTAGISFAIPSDRITRFLTEFQDKQIKDWKKRFIGIRMRTITPSLVDELKASNPDFPEVSSGIYVQEVAPNSPSQRGGIQDGDIIVKVNGRPLVDSSELQEAVLTESPLLLEVRRGNDDLLFSIAPEVVM

Tests used:
[1] = target: the molecule itself; assay: SEC
[2] = target: the molecule itself; assay: SEC; remark: listed apart in the source

Protein	stoichiometry N [1]	stoichiometry N [2]
B1	3	
B2		3
